According to patent US20220396632A1 (VERSEAU THERAPEUTICS, published 2022):

Columns and labels:
[1] = molecular target: T1, Recombinant human PSGL-1(ECD)-hFc1 (R&D Systems, Cat. 3345-PS) (human, UniProt Q14242 42-305); assay: ELISA, plate-bound target
T1 construct: Bought; Gln42-Val295 counted on AAC50061; also called PSGL-1-Fc; PSGL-1-hFc1 chimera; not shown: human IgG1 Fc, Pro100-Lys330
T1 sequence: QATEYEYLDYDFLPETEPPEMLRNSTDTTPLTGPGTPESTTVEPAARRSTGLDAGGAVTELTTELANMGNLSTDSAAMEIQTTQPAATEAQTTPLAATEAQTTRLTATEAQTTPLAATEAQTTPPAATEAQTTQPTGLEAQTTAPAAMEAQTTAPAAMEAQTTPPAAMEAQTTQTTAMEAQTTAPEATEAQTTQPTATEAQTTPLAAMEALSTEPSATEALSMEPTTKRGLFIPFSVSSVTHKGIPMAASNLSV
Procedure: Two ELISA methods were performed. One procedure detected mAb binding to its plate-immobilized target and the other measured the immobilized antibody's ability to capture biotinylated PSGL-1₄₂₋₆₂. […] The plate was incubated for 45 min at 37° C. Plates were washed 3 times with wash buffer (PBS containing 0.05% tween 20, pH 7.4) and a single concentration (2 to 500 nM) or serially diluted (0.002-100 nM) anti-PSGL-1 mAb was added (25 ul/well) in assay buffer into appropriate wells. The plate was incubated for 45 min at 37° C., washed 3 times, and an appropriate HRP-conjugated secondary antibody added (25 ul/well) (HRP goat anti-mouse or anti-human IgG). After 45 min incubation at 37° C., the plate was washed, and antibody bound to plate-immobilized target was determined at A450 nm using HRP substrate (3,3′,5,5′-etramethylbenzidine (TMB)). For each antibody, duplicate values were averaged and assay background was subtracted. Except for the following, ELISAs involving plate-immobilized mAb capturing of biotinylated PSGL-1₄₂₋₆₂ peptides was performed in the same manner as described above: 3 ug/mL/25 ul per well of mAb was coated directly onto microtiter plate wells; biotinylated unmodified or sulfotyrosine PSGL-1₄₂₋₆₂ was serially diluted (3 nM-3 uM) into appropriate wells, and antibody-bound peptide was detected using HRP-streptavidin (Jackson Immunoresearch, Cat. #016-030-084).

[2] = molecular target: T2, Biotin PSGL-1(42-62) E56A peptide (C-terminal Lys-biotin); assay: ELISA, streptavidin-bound Ala peptide
T2 peptide: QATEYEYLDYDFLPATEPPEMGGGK

[3] = molecular target: T3, Biotin PSGL-1(42-62) D50A peptide (C-terminal Lys-biotin); assay: alanine-scan ELISA, streptavidin-immobilized biotin peptide
T3 peptide: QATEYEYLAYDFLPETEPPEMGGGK

[4] = molecular target: T4, Biotin PSGL-1(42-62) F53A peptide (C-terminal Lys-biotin); assay: as above
T4 peptide: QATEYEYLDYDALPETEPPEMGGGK

[5] = molecular target: T5, Biotin PSGL-1(42-62) E45A peptide (C-terminal Lys-biotin); assay: ELISA, streptavidin-bound Ala peptide
T5 peptide: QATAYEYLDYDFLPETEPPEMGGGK

[6] = molecular target: T6, Biotin PSGL-1(42-62) Y46A peptide (C-terminal Lys-biotin); assay: ELISA, streptavidin-bound Ala peptide
T6 peptide: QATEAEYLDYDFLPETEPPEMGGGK

[7] = molecular target: T7, 42-80 (C-terminal Lys-biotin); assay: ELISA, streptavidin-immobilized biotin peptide, 10 nM mAb [cont.]
T7 construct: also called Biotin PSGL-1(42-80) peptide
T7 peptide: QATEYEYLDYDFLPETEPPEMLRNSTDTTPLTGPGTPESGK
Procedure: A typical ELISA experiment involved binding of a single concentration or serially diluted mAb in assay buffer (3% BSA in PBS containing 0.05% Tween®20, pH 7.4) onto BSA blocked high binding microtiter plate half-wells (Corning Cat. #3690), which contained PSGL-1 protein or streptavidin-immobilized biotin peptide. After incubation for 45 min. at 37° C., the plate was washed 3 times with wash buffer (PBS containing 0.05% Tween®20, pH 7.4), and an appropriate HRP-conjugated secondary antibody added (25 ul/well) (HRP goat anti-mouse or anti-human IgG). After 45 min. incubation at 37° C., the plate was washed and antibody bound to plate-immobilized target was determined at A450 nm using HRP substrate (3,3′5,5′-tetramethylbenzidine (TMB)). For each antibody, duplicate values were averaged and assay background subtracted.

[8] = molecular target: T8, Biotin Y46,48,51(SO3) PSGL-1(42-62) peptide (human, sulfotyrosine at Y46, Y48 and Y51; C-terminal Lys-biotin); assay: ELISA, plate-bound mAb captures biotin 3 x sY peptide
T8 construct: also called fully sulfated N-terminal PSGL-1 peptide
T8 peptide: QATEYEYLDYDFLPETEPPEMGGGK
Procedure: A typical ELISA for N-terminal PSGL-1 reactive humanized mAbs binding to Y_{46,48,51}(SO₃) PSGL-1₍₄₂₋₆₂₎ involved coating high binding half-well plates (Corning Cat. #3690) with 3 ug/mL/25 ul per well of the mAbs or with an isotype hG4 control in PBS, pH 7.4, overnight at 4° C. […] Biotinylated Y_{46,48,51}(SO₃) PSGL-1₍₄₂₋₆₂₎ was added (25 ul per well) in duplicate at 2.8 uM in assay buffer (blocking buffer containing 0.05% tween 20) and serially diluted into test and control (just blocked) wells, and the plate incubated for 45 min at 37° C. The plate was washed ×3 and an appropriate HRP-conjugated streptavidin was added (25 ul per well; Jackson Immunoresearch, Cat. #016-030-084) and the plate was incubated for 45 min at 37° C. […] For each antibody, an EC50 value was determined from sigmoidal fitted peptide titration curve.

[9] = molecular target: T3, Biotin PSGL-1(42-62) D50A peptide; assay: ELISA, streptavidin-bound Ala peptide
[10] = molecular target: T9, Biotin PSGL-1(42-62) P55A peptide (C-terminal Lys-biotin); assay: alanine-scan ELISA, streptavidin-immobilized biotin peptide
T9 peptide: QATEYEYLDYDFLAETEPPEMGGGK

[11] = molecular target: T10, Biotin PSGL-1(42-62) L49A peptide (C-terminal Lys-biotin); assay: as above
T10 peptide: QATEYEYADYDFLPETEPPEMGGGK

[12] = molecular target: T11, Biotin PSGL-1(42-62) L54A peptide (C-terminal Lys-biotin); assay: as above
T11 peptide: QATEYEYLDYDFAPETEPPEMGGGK

[13] = molecular target: T2, Biotin PSGL-1(42-62) E56A peptide; assay: as above

B1: 20I15 (antibody, V domains shown)
VH: EVKLVESGGGLVQPGGSLSLSCAASGFTFTDYYMSWVRQPPGKALEWLGFIRNKANGYTTEYSASVKGRFTISRDNSQSILYLQMNALRAEDSATYYCARTYLRRGYFDVWGTGTTVTVSS
VL: DIVLTQSPASLAVSLGQRATISCRASKSVSTSGYSYMHWFQQKPGQPPKLLIYLASNLESGVPARFSGSGSGTDFTLNIHPVEEEDAATYYCQHSRELPLTFGAGTKLELK
notes: From mouse immunisation; only variable domains given; also called 20115
[1]
  EC50: 0.26 nM

B2: 43B6 (antibody, V domains shown)
VH: EVQLQQSGPDLVKPGALVKISCKASGYSFTAYYIHWVKQSHGKSLEWIGRVNPNTGGTSYNPKFKGKAILNVDKSSSTAYMELRSLTSEDSAVYYCARSGSPYYRYDDWGQGTTLTVSS
VL: ENVLTQSPAIMSASPGEKVTMTCRASSTVNSTYLHWFQQKSGASPKLWIYGSSNLASGVPARFSGSGSGTSYSLTISSVEAEDAATYYCQQYSGYPLTFGAGTTLELK
notes: Control anti-PSGL-1 mAb, recombinant; only variable domains given; also called 43B3
[2]
  EC50: 4.25 nM
[3]
  binding result: binds
[4]
  binding result: binds

B3: 16L15 (antibody, V domains shown)
VH: DVKLVESGGGLVKLGGSLKLSCAASGFTFSSYYMSWVRQTPEKRLEWVATISNGGGSTYYPDSVKDRFTISRDNAKNTLYLQMSSLNSEDTAVYYCAKPLYYSNPWFAYWGQGTLVTVSA
VL: DVLLTQTPLSLPVSLGDQASISCRSSQSIVHSNGNTYLEWYLQKPGQSPKLLIYKVSNRFSGVPDRFSGSGSGTDFTLKISRVEAEDLGVYYCFQGSHVPRTFGGGTKLEIK
notes: From mouse immunisation; only variable domains given
[5]
  EC50: 5.34 nM
[6]
  EC50: 4.44 nM

B4: 18F02 (antibody, V domains shown)
VH: QVQLQQPGAELVKPGASVKLSCKASGYTFTSYWMHWVKQRPGQGLEWIGMIHPNSGRTNYNEKFKSKATLTVDKSSSTAYMQLSSLTSEDSAVYYCARSDYWGQGTTLTVSS
VL: DIVMTQAAFSNPVTLGTSASISCRSSKSLLHSDGITYLYWFLQRPGQSPQLLIYRMSNLASGVPDRFSGSGSGTDFTLRISRVEAEDVGVYYCAQMLEFPRTFGGGTKLEIK
notes: as for B3
[7]
  binding result: binds
[8]
  EC50: 70 nM
[9]
  EC50: 4.27 nM
[10]
  binding result: binds
[11]
  binding result: binds
[12]
  binding result: binds
[13]
  binding result: binds
